Substrate in this series: O=[N+]([O-])c1ccc(O[C@@H]2O[C@H](CO)[C@@H](O)[C@H](O)[C@H]2O)cc1
Briefly: purified protein. To be noted: 50 mM imidazole-potassium buffer pH 6.4, 70°C, Table 2 prints 0.63.

B1: BGL (β-glucosidase, Tthe_1813) (Thermoanaerobacterium thermosaccharolyticum DSM 571) (protein)
chain: MSDFNKDFLFGVATASYQVEGAYNEDGRSMSIWDTFCRQDGKVYKGHNGDVACDHYHLYKDDVKMMKDLGIEAYRFSIAWPRIFPEKGHYNPKGIDFYKRLTDELLKNDIKPFVTIYHWDLPQWADDLGGWLNREVVDWFGEYVSKLFNELGGYIRNWITLNEPWCSSFLSYFIGEHAPGHKDLGEAVLVSHNLLLAHGKAVEIFRDINSSDSKIGITLNLNEVFPATDSPEDKAAARIADGFQNRWFLDPIFKGEYPKDMLELFGKYAKTDFITDGDLKRISQKLDFLGVNYYTRAVVKKGNDGILNAEQIDVDNEKTEMGWEVYPESLYNILMRLKNEYTFDLPLYITENGAAYKDVVSDDGHVHDEKRVEFLKKHFKQAKRFIDDGGNLRGYFVWSLMDNFEWAHGYSKRFGIVYVDYETEKRILKDSALWYKNLISTRTI
For the protein B1, the Michaelis constant (Km) (in general, the concentration of substrate that gives half-maximal velocity) stood at 620 µM.

For the origin of these results see article PMC3395577.
